As usually defined, the Kd is the concentration at which binding is half-saturated.

Where only a bound is given, the exact number is not on record here.

From the Immune Epitope Database (IEDB) come the findings set out here.

Test [1] deals with HLA-A*26:01. The test can be described thus: IEDB peptide-MHC binding, purified MHC/competitive/fluorescence; filed as Kd, often an IC50 or EC50 that approximates it; ≥ and ≤ were set here for values at or beyond the usual limits of such assays. As to conditions: source organism: Escherichia coli str. K-12 substr. MG1655.
Test [2] has as its target HLA-B*15:01. Described as above. As to conditions: source organism: Escherichia coli str. K-12 substr. MG1655.
Test [3] has as its target HLA-A*68:02. Briefly: IEDB peptide-MHC binding, purified MHC/competitive/radioactivity; filed as Kd, often an IC50 or EC50 that approximates it; ≥ and ≤ were set here for values at or beyond the usual limits of such assays.
The target in test [4] is HLA-B*51:01. The test is described as above.
Test [5] has as its target HLA-B*07:02. The test is described as above.
The target in test [6] is HLA-B*35:01. Described as above.
Test [7] concerns the target HLA-A*02:06. The description is as above.
Test [8] deals with HLA-B*45:01. The test is described as above.
Test [9] concerns the target HLA-B*44:02. Described as above.
Test [10] deals with HLA-B*40:01. The description is as above.
For test [11], the target named is HLA-B*40:02. The description is as above.
Test [12] deals with HLA-B*18:01. The description is as above.
Test [13] deals with HLA-B*44:03. The test is described as above.
Test [14] deals with HLA-B*53:01. The description is as above. As to conditions: source organism: Dengue virus 3 Martinique/1243/1999.
Test [15] has as its target HLA-A*24:03. Briefly: IEDB peptide-MHC binding, purified MHC/direct/fluorescence; filed as Kd, often an IC50 or EC50 that approximates it; ≥ and ≤ were set here for values at or beyond the usual limits of such assays. Conditions: source organism: Mycobacterium tuberculosis variant bovis.
[16] abbreviates: source organism: Dengue virus 1 Brazil/97-11/1997.
Where [17] appears, read: source organism: Dengue virus 2 Jamaica/1409/1983.
Setting [18] is: source organism: Dengue virus 4 Philippines/H241/1956.
Where [19] appears, read: source organism: Mammarenavirus machupoense.
Setting [20] is: source organism: Dengue virus 3 Martinique/1243/1999.
The mark [21] stands for this setting: source organism: SARS coronavirus Tor2.
The mark [22] stands for this setting: source organism: Mammarenavirus lassaense.
[23] abbreviates: source organism: Mammarenavirus choriomeningitidis.
The mark [24] stands for this setting: source organism: Mammarenavirus guanaritoense.

For the sequence ALKANNKVY, the equilibrium dissociation constant (Kd) in [1] was at least 20000 nM; in [2] it was 708 nM.

In the case of MTCIAVGMV, in [3] (setting [16]), the dissociation constant (Kd) is 7.63 nM.

For the sequence TALTGATEI, the Kd in test [4] (setting [17]) was determined as 623 nM.

As to TPQAPTSEIQ, in test [5] (setting [16]), the Kd is 808 nM.

Consider TPPGATDPF, for which the Kd in test [5] (setting [18]) is 1070 nM; in test [6] (setting [18]), 132 nM.

As to GPLIAGGML, the Kd in test [5] (setting [16]) turned out to be 127 nM.

For FTVIALFLA, the Kd came to 136 nM in test [3] (setting [16]) and 3.16 nM in [7] (setting [16]).

In the case of AENVIVGLV, the dissociation constant (Kd) is 3.39 nM in [8] (setting [19]); 142 nM in test [9] (setting [19]); 2930 nM in test [10] (setting [19]); 30 nM in [11] (setting [19]); at least 77500 nM in test [12] (setting [19]); 340 nM in [13] (setting [19]).

As to MPSMKRFRKE, the Kd was at least 69600 nM in test [4] (setting [20]), 10900 nM in [14] and 14000 nM in test [6] (setting [20]).

Consider GDEALTGFL, for which the Kd was at least 22600 nM in [8] (setting [19]); 13800 nM in test [9] (setting [19]); 908 nM in test [10] (setting [19]); 2990 nM in [11] (setting [19]); 5820 nM in test [12] (setting [19]); at least 78100 nM in test [13] (setting [19]).

Regarding ANNKVYEAY, the dissociation constant Kd in [2] was 499 nM.

For AEIVDTVSA, the Kd in test [8] (setting [21]) is 8.59 nM; in test [9] (setting [21]) it was 1930 nM; in test [10] (setting [21]) it was 396 nM; in test [11] (setting [21]), 73.5 nM; in test [12] (setting [21]) it was 8190 nM; in test [13] (setting [21]), 1640 nM.

As to DEADLDEILL, the Kd is at least 45000 nM in test [8] (setting [22]); at least 45600 nM in test [9] (setting [22]); 18100 nM in test [10] (setting [22]); 5930 nM in [11] (setting [22]); 1700 nM in test [12] (setting [22]); at least 26900 nM in test [13] (setting [22]).

As for AELLPDTTYL, the equilibrium dissociation constant (Kd) is 17300 nM in [8] (setting [23]); 561 nM in test [9] (setting [23]); 9780 nM in test [10] (setting [23]); 167 nM in test [11] (setting [23]); at least 70400 nM in test [12] (setting [23]); 1210 nM in test [13] (setting [23]).

Consider IEELFYSYA, for which the Kd in test [8] (setting [21]) came to 49.5 nM; in test [9] (setting [21]), 1770 nM; in test [10] (setting [21]) it was 16000 nM; in test [11] (setting [21]) it was 3060 nM; in test [12] (setting [21]), 3960 nM; in [13] (setting [21]) it was 4600 nM.

Turning to LPWTSGATT, the Kd was determined as 25.8 nM in test [5] (setting [20]) and 1300 nM in [6] (setting [20]).

Take ADVFHLYLQY: the dissociation constant (Kd) in test [8] (setting [21]) was 11400 nM; in test [9] (setting [21]) it was 2420 nM; in [10] (setting [21]), 16500 nM; in test [11] (setting [21]), at least 39800 nM; in [12] (setting [21]), at least 20700 nM; in test [13] (setting [21]) it was 147 nM.

In test [15], SYYPDQKSL yielded a dissociation constant (Kd) of 8.4 nM.

For the sequence DLTDYLMKI, the Kd in test [3] (source organism: Homo sapiens) turned out to be 3720 nM.

Consider FEIDKGIYQT, for which the Kd in [8] (setting [21]) is 3100 nM; in test [9] (setting [21]), at least 56500 nM; in [10] (setting [21]), 738 nM; in test [11] (setting [21]) it was 47.3 nM; in [12] (setting [21]), 6400 nM; in [13] (setting [21]), 11800 nM.

Regarding TEYDGHINL, the Kd in test [8] (source organism: Variola virus) came to 391 nM; in test [9] (source organism: Variola virus) it was 58.3 nM; in test [10] (source organism: Variola virus), 6.19 nM; in test [11] (source organism: Variola virus), 0.998 nM; in test [12] (source organism: Variola virus), 11.5 nM; in [13] (source organism: Variola virus), 9880 nM.

Regarding EAAGIFMTA, the Kd in test [3] (setting [17]) came to 0.37 nM.

Turning to FSRENSYSGV, the Kd in test [4] (setting [20]) is at least 44800 nM.

For the sequence LVMLLVHYAI, the Kd in [3] (setting [18]) was found to be 1260 nM; in test [7] (setting [18]), 151 nM.

On to LEREQIPTLI, for which the dissociation constant Kd in [8] (setting [24]) was 9710 nM; in test [9] (setting [24]), 19600 nM; in [10] (setting [24]), 2750 nM; in [11] (setting [24]), 559 nM; in test [12] (setting [24]), at least 57500 nM; in test [13] (setting [24]), 12800 nM.
